Reference: US20160137708A1 (Amgen, published 2016)
Positions count from the first letter of the chain named. Like-named read-outs stand apart in the source and are kept apart here.

Legend:
Assay in all cases: cell-based or functional assay
[1] = target: T1, human IL-1Rrp2 (IL-1R-related protein 2) (human, UniProt Q9HB29 20-575)
T1 sequence (looked up): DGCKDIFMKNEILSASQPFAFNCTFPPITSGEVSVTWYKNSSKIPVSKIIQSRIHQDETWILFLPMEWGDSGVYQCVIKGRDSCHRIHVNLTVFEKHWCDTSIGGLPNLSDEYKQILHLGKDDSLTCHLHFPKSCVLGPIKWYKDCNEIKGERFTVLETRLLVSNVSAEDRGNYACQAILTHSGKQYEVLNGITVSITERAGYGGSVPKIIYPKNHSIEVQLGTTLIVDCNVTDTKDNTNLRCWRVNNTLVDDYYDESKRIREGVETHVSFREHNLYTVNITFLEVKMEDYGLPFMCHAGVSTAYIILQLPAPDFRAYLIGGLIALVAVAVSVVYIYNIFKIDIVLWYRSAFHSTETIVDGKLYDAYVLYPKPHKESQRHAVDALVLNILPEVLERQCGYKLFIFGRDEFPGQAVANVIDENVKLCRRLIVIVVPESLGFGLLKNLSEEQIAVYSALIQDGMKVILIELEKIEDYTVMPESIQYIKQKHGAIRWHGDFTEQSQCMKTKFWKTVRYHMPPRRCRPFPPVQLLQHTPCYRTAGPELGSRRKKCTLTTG

[2] = target: T1, human IL-1Rrp2 (IL-1R-related protein 2); remark: listed apart in the source
[3] = target: T1, human IL-1Rrp2 (IL-1R-related protein 2); remark: listed apart in the source

B1: HuIL-1F9WT (untagged full length wild type human IL-1F9) (ligand)
chain: MRGTPGDADGGGRAVYQSMCKPITGTINDLNQQVWTLQGQNLVAVPRSDSVTPVTVAVITCKYPEALEQGRGDPIYLGIQNPEMCLYCEKVGEQPTLQLKEQKIMDLYGQPEPVKPFLFYRAKTGRTSTLESVAFPDWFIASSKRDQPIILTSELGKSYNTAFELNIND
- EC50, IL-8 ELISA of supernatants of Jurkat T-REx cells expressing human IL-1Rrp2 [1]: 4070 ng/mL
- EC50, luciferase reporter assay in IL-1Rrp2 transfected Jurkat cells [1]: > 544 ng/mL

B2: HuIL-1F6WT/FpH (ligand)
chain: MEKALKIDTPQQGSIQDINHRVWVLQDQTLIAVPRKDRMSPVTIALISCRHVETLEKDRGNPIYLGLNGLNLCLMCAKVGDQPTLQLKEKDIMDLYNQPEPVKSFLFYHSQSGRNSTFESVAFPGWFIAVSSEGGCPLILTQELGKANTTDFGLTMLFDYKDDDDKHHHHHH
- EC50, luciferase reporter assay in IL-1Rrp2 transfected Jurkat cells [1]: > 136 ng/mL

B3: HuIL-1F6 WT (untagged full length wild type human IL-1F6) (ligand)
chain: MEKALKIDTPQQGSIQDINHRVWVLQDQTLIAVPRKDRMSPVTIALISCRHVETLEKDRGNPIYLGLNGLNLCLMCAKVGDQPTLQLKEKDIMDLYNQPEPVKSFLFYHSQSGRNSTFESVAFPGWFIAVSSEGGCPLILTQELGKANTTDFGLTMLF
- EC50, IL-8 ELISA of supernatants of Jurkat T-REx cells expressing human IL-1Rrp2 [1]: 12900 ng/mL
- EC50, luciferase reporter assay in IL-1Rrp2 transfected Jurkat cells [1]: > 212 ng/mL

B4: HuIL-1F8WT/FpH (ligand)
chain: MNPQREAAPKSYAIRDSRQMVWVLSGNSLIAAPLSRSIKPVTLHLIACRDTEFSDKEKGNMVYLGIKGKDLCLFCAEIQGKPTLQLKEKNIMDLYVEKKAQKPFLFFHNKEGSTSVFQSVSYPGWFIATSTTSGQPIFLTKERGITNNTNFYLDSVEDYKDDDDKHHHHHH
- EC50, luciferase reporter assay in IL-1Rrp2 transfected Jurkat cells [1]: > 258 ng/mL

B5: HuIL-1F8WT (untagged full length wild type human IL-1F8) (ligand)
chain: MNPQREAAPKSYAIRDSRQMVWVLSGNSLIAAPLSRSIKPVTLHLIACRDTEFSDKEKGNMVYLGIKGKDLCLFCAEIQGKPTLQLKEKNIMDLYVEKKAQKPFLFFHNKEGSTSVFQSVSYPGWFIATSTTSGQPIFLTKERGITNNTNFYLDSVE
- EC50, IL-8 ELISA of supernatants of Jurkat T-REx cells expressing human IL-1Rrp2 [1]: 10500 ng/mL
- EC50, luciferase reporter assay in IL-1Rrp2 transfected Jurkat cells [1]: > 193 ng/mL

B6: HuIL-1F9WT/FpH (ligand)
chain: MRGTPGDADGGGRAVYQSMCKPITGTINDLNQQVWTLQGQNLVAVPRSDSVTPVTVAVITCKYPEALEQGRGDPIYLGIQNPEMCLYCEKVGEQPTLQLKEQKIMDLYGQPEPVKPFLFYRAKTGRTSTLESVAFPDWFIASSKRDQPIILTSELGKSYNTAFELNINDDYKDDDDKHHHHHH
- EC50, luciferase reporter assay in IL-1Rrp2 transfected Jurkat cells [1]: > 332 ng/mL

B7: HuIL-1F9S18 (ligand)
chain: SMCKPITGTINDLNQQVWTLQGQNLVAVPRSDSVTPVTVAVITCKYPEALEQGRGDPIYLGIQNPEMCLYCEKVGEQPTLQLKEQKIMDLYGQPEPVKPFLFYRAKTGRTSTLESVAFPDWFIASSKRDQPIILTSELGKSYNTAFELNIND
- EC50, IL-8 ELISA of supernatants of Jurkat T-REx cells expressing human IL-1Rrp2 [2]: 1 ng/mL

B8: HuIL-1F9S18/FpH (ligand)
chain: SMCKPITGTINDLNQQVWTLQGQNLVAVPRSDSVTPVTVAVITCKYPEALEQGRGDPIYLGIQNPEMCLYCEKVGEQPTLQLKEQKIMDLYGQPEPVKPFLFYRAKTGRTSTLESVAFPDWFIASSKRDQPIILTSELGKSYNTAFELNINDDYKDDDDKHHHHHH
- EC50, luciferase reporter assay in IL-1Rrp2 transfected Jurkat cells [3]: 1 ng/mL
- EC50, IL-8 ELISA of supernatants of Jurkat T-REx cells expressing human IL-1Rrp2 [2]: 17 ng/mL

B9: HuIL-1F9M19/FpH (ligand)
chain: B8 chain with S1M
- EC50, luciferase reporter assay in IL-1Rrp2 transfected Jurkat cells [3]: 1.1 ng/mL

B10: HuIL-1F8E6/FpH (ligand)
chain: MEAAPKSYAIRDSRQMVWVLSGNSLIAAPLSRSIKPVTLHLIACRDTEFSDKEKGNMVYLGIKGKDLCLFCAEIQGKPTLQLKEKNIMDLYVEKKAQKPFLFFHNKEGSTSVFQSVSYPGWFIATSTTSGQPIFLTKERGITNNTNFYLDSVEDYKDDDDKHHHHHH
- EC50, luciferase reporter assay in IL-1Rrp2 transfected Jurkat cells [3]: 0.2 ng/mL
- EC50, IL-8 ELISA of supernatants of Jurkat T-REx cells expressing human IL-1Rrp2 [2]: 2 ng/mL

B11: HuIL-1F8R5 (ligand)
chain: REAAPKSYAIRDSRQMVWVLSGNSLIAAPLSRSIKPVTLHLIACRDTEFSDKEKGNMVYLGIKGKDLCLFCAEIQGKPTLQLKEKNIMDLYVEKKAQKPFLFFHNKEGSTSVFQSVSYPGWFIATSTTSGQPIFLTKERGITNNTNFYLDSVE
- EC50, IL-8 ELISA of supernatants of Jurkat T-REx cells expressing human IL-1Rrp2 [2]: 0.129 ng/mL

B12: HuIL-1F6I7/FpH (ligand)
chain: MIDTPQRGSIQDINHRVWVLQDQTLIAVPRKDRMSPVTIALISCRHVETLEKDRGNPIYLGLNGLNLCLMCAKVGDQPTLQLKEKDIMDLYNQPEPVKSFLFYHSQSGRNSTFESVAFPGWFIAVSSEGGCPLILTQELGKANTTDFGLTMLFDYKDDDDKHHHHHH
- EC50, luciferase reporter assay in IL-1Rrp2 transfected Jurkat cells [3]: 2.8 ng/mL
- EC50, IL-8 ELISA of supernatants of Jurkat T-REx cells expressing human IL-1Rrp2 [2]: 60 ng/mL

B13: HuIL-1F6K6 (ligand)
chain: KIDTPQQGSIQDINHRVWVLQDQTLIAVPRKDRMSPVTIALISCRHVETLEKDRGNPIYLGLNGLNLCLMCAKVGDQPTLQLKEKDIMDLYNQPEPVKSFLFYHSQSGRNSTFESVAFPGWFIAVSSEGGCPLILTQELGKANTTDFGLTMLF
- EC50, IL-8 ELISA of supernatants of Jurkat T-REx cells expressing human IL-1Rrp2 [2]: 0.164 ng/mL
